From US20210292396A1

How the values were obtained:
Assay in all cases: cell-based or functional assay
[1] = biological target: Env of HIV isolate DU156.12 (clade C) (HIV)
[2] = biological target: HIV Env of isolate 57128.vrc15 (HIV)
[3] = biological target: Env of HIV isolate ZM55.28a (clade C) (HIV)
[4] = biological target: Env of HIV isolate 620345.c1 (clade AE) (HIV)
[5] = biological target: Env of HIV isolate CNE30 (clade C in Table 7) (HIV)
[6] = biological target: HIV Env of isolate QH209.14M.A2 (HIV)
[7] = biological target: Env of HIV isolate SO18.18 (clade C) (HIV)
[8] = biological target: HIV Env of isolate 3468.v1.c12 (HIV)
[9] = biological target: Env of HIV isolate 3589.v1.c4 (clade AC) (HIV)
[10] = biological target: HIV Env of isolate CNE10 (HIV)
[11] = biological target: HIV Env of isolate JRCSF.JB (HIV) (UniProt P20871)
[12] = biological target: HIV Env of isolate BB201.B42 (HIV)
[13] = biological target: Env of HIV isolate 6631.v3.c10 (clade C) (HIV)
[14] = biological target: HIV Env of isolate TH966.8 (HIV)
[15] = biological target: Env of HIV isolate JRCSF.JB (clade B) (HIV)
[16] = biological target: Env of HIV isolate BB201.B42 (clade A) (HIV)
[17] = biological target: HIV Env of isolate 246-F3.C10.2 (HIV)
[18] = biological target: Env of HIV isolate 6535.3 (clade B) (HIV)
[19] = biological target: HIV Env of isolate CNE21 (HIV)
[20] = biological target: HIV Env of isolate MN.3 (HIV)
[21] = biological target: Env of HIV isolate UG024.2 (clade D) (HIV)
[22] = biological target: Env of HIV isolate MS208.A1 (clade A) (HIV)
[23] = biological target: Env of HIV isolate ZM109.4 (clade C) (HIV)
[24] = biological target: Env of HIV isolate ZM197.7 (clade C) (HIV)
[25] = biological target: Env of HIV isolate SF162.LS (clade B) (HIV)
[26] = biological target: HIV Env of isolate CM244.ec1 (HIV)
[27] = biological target: Env of HIV isolate 00836-2.5 (clade C) (HIV)
[28] = biological target: HIV Env of isolate TH023.6 (HIV)
[29] = biological target: Env of HIV isolate CH117.4 (clade BC) (HIV)
[30] = biological target: Env of HIV isolate Q23.17 (clade A) (HIV)
[31] = biological target: HIV Env of isolate A03349M1.vrc4a (HIV)
[32] = biological target: HIV Env of isolate DU172.17 (HIV)
[33] = biological target: Env of HIV isolate TRO.11 (clade B) (HIV)
[34] = biological target: Env of HIV isolate BG1168.01 (clade B) (HIV)
[35] = biological target: HIV Env of isolate BR025.9 (HIV)
[36] = biological target: HIV Env of isolate 6101.10 (HIV)
[37] = biological target: HIV Env of isolate BB539.2B13 (HIV)
[38] = biological target: HIV Env of isolate UG024.2 (HIV)
[39] = biological target: HIV Env of isolate T257-31 (HIV)
[40] = biological target: Env of HIV isolate 6785.v5.c14 (clade C) (HIV)
[41] = biological target: HIV Env of isolate 25710-2.43 (HIV)
[42] = biological target: HIV Env of isolate 263-8 (HIV)
[43] = biological target: Env of HIV isolate CNE12 (clade B) (HIV)
[44] = biological target: Env of HIV isolate P0402.c2.11 (clade G) (HIV)
[45] = biological target: Env of HIV isolate M02138 (clade AE) (HIV)
[46] = biological target: Env of HIV isolate TV1.29 (clade C) (HIV)
[47] = biological target: HIV Env of isolate CAP210.E8 (HIV)
[48] = biological target: HIV Env of isolate 0815.v3.c3 (HIV)
[49] = biological target: HIV Env of isolate CH119.10 (HIV)
[50] = biological target: HIV Env of isolate KNH1209.18 (HIV)
[51] = biological target: Env of HIV isolate MN.3 (clade B) (HIV)
[52] = biological target: Env of HIV isolate 3168.v4.c10 (clade C) (HIV)
[53] = biological target: Env of HIV isolate 6322.v4.c1 (clade C) (HIV)

Sequence of HIV Env of isolate JRCSF.JB (HIV) (P20871 32-848 limits assumed): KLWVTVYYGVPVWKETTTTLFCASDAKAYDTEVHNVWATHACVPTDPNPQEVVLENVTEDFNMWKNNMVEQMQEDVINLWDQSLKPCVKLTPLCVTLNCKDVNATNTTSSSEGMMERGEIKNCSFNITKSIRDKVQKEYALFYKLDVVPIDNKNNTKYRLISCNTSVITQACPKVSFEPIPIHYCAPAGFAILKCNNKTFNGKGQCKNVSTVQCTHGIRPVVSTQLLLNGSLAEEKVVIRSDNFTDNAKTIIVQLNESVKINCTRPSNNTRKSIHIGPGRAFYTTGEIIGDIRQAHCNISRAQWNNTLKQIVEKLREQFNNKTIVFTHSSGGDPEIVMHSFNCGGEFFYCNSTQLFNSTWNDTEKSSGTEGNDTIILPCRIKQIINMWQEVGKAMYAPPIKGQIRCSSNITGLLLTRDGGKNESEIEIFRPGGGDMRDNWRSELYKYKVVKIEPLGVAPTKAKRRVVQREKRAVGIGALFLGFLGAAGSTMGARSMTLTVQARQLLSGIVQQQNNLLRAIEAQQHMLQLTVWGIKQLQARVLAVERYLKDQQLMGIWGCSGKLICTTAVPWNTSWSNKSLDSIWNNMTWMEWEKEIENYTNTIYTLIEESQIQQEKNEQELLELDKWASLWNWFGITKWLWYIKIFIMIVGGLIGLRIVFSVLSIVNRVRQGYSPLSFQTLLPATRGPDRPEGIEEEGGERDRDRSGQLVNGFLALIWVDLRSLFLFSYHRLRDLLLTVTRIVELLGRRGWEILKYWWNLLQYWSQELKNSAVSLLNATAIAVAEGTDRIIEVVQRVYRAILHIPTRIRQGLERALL

**Q.** Which IC50, pseudovirus neutralization [1] does the source give for PGT121 (antibody) here?
**A.** The IC50, pseudovirus neutralization was 0.0147 µg/mL.

**Q.** What about the IC80, pseudovirus neutralization [2] of the same substance?
**A.** The IC80, pseudovirus neutralization was over 50 µg/mL.

**Q.** What about the IC50, pseudovirus neutralization [3] of the same substance?
**A.** The IC50, pseudovirus neutralization was 0.0807 µg/mL.

**Q.** What about the IC50, pseudovirus neutralization [4] of the same substance?
**A.** The IC50, pseudovirus neutralization was over 50 µg/mL.

**Q.** And the IC50, pseudovirus neutralization [5]?
**A.** Its IC50, pseudovirus neutralization is 0.114 µg/mL.

**Q.** What about the IC80 [6] of the same substance?
**A.** Its IC80 is over 50 µg/mL.

**Q.** What about the IC50, pseudovirus neutralization [7] of the same substance?
**A.** Its IC50, pseudovirus neutralization is 0.00533 µg/mL.

**Q.** And the IC80 [8]?
**A.** The IC80 was 0.413 µg/mL.

**Q.** What about the IC50, pseudovirus neutralization [9] of the same substance?
**A.** Its IC50, pseudovirus neutralization is over 50 µg/mL.

**Q.** What about the IC80 [10] of the same substance?
**A.** The IC80 was 0.048 µg/mL.

**Q.** And the IC80 [11]?
**A.** Its IC80 is 0.162 µg/mL.

**Q.** What about the IC80 [12] of the same substance?
**A.** The IC80 was 0.0243 µg/mL.

**Q.** And the IC50, pseudovirus neutralization [13]?
**A.** Its IC50, pseudovirus neutralization is over 50 µg/mL.

**Q.** What about the IC80 [14] of the same substance?
**A.** Its IC80 is over 50 µg/mL.

**Q.** What about the IC50, pseudovirus neutralization [15] of the same substance?
**A.** The IC50, pseudovirus neutralization was 0.0563 µg/mL.

**Q.** What about the IC50, pseudovirus neutralization [16] of the same substance?
**A.** The IC50, pseudovirus neutralization was 0.00933 µg/mL.

**Q.** What about the IC80 [17] of the same substance?
**A.** The IC80 was over 50 µg/mL.

**Q.** And the IC50, pseudovirus neutralization [18]?
**A.** The IC50, pseudovirus neutralization was 0.00633 µg/mL.

**Q.** What about the IC80, pseudovirus neutralization [19] of the same substance?
**A.** Its IC80, pseudovirus neutralization is 0.0383 µg/mL.

**Q.** What about the IC80 [20] of the same substance?
**A.** The IC80 was over 50 µg/mL.

**Q.** What about the IC50, pseudovirus neutralization [21] of the same substance?
**A.** The IC50, pseudovirus neutralization was over 50 µg/mL.

**Q.** What about the IC50, pseudovirus neutralization [22] of the same substance?
**A.** The IC50, pseudovirus neutralization was over 50 µg/mL.

**Q.** What about the IC50, pseudovirus neutralization [23] of the same substance?
**A.** Its IC50, pseudovirus neutralization is 1.96 µg/mL.

**Q.** What about the IC50, pseudovirus neutralization [24] of the same substance?
**A.** The IC50, pseudovirus neutralization was over 50 µg/mL.

**Q.** And the IC50, pseudovirus neutralization [25]?
**A.** Its IC50, pseudovirus neutralization is 0.00733 µg/mL.

**Q.** And the IC80 [26]?
**A.** The IC80 was over 50 µg/mL.

**Q.** And the IC50, pseudovirus neutralization [27]?
**A.** Its IC50, pseudovirus neutralization is over 50 µg/mL.

**Q.** What about the IC80 [28] of the same substance?
**A.** Its IC80 is over 50 µg/mL.

**Q.** And the IC50, pseudovirus neutralization [29]?
**A.** The IC50, pseudovirus neutralization was over 50 µg/mL.

**Q.** What about the IC50, pseudovirus neutralization [30] of the same substance?
**A.** The IC50, pseudovirus neutralization was 0.0107 µg/mL.

**Q.** And the IC80, pseudovirus neutralization [31]?
**A.** Its IC80, pseudovirus neutralization is 0.359 µg/mL.

**Q.** What about the IC80, pseudovirus neutralization [32] of the same substance?
**A.** Its IC80, pseudovirus neutralization is 0.41 µg/mL.

**Q.** What about the IC50, pseudovirus neutralization [33] of the same substance?
**A.** Its IC50, pseudovirus neutralization is 0.0203 µg/mL.

**Q.** And the IC50, pseudovirus neutralization [34]?
**A.** The IC50, pseudovirus neutralization was over 50 µg/mL.

**Q.** And the IC80, pseudovirus neutralization [35]?
**A.** The IC80, pseudovirus neutralization was 0.0253 µg/mL.

**Q.** What about the IC80 [36] of the same substance?
**A.** The IC80 was 0.0353 µg/mL.

**Q.** And the IC80 [37]?
**A.** Its IC80 is over 50 µg/mL.

**Q.** And the IC80, pseudovirus neutralization [38]?
**A.** Its IC80, pseudovirus neutralization is over 50 µg/mL.

**Q.** What about the IC80 [39] of the same substance?
**A.** The IC80 was over 50 µg/mL.

**Q.** And the IC50, pseudovirus neutralization [40]?
**A.** The IC50, pseudovirus neutralization was 0.0503 µg/mL.

**Q.** And the IC80, pseudovirus neutralization [41]?
**A.** The IC80, pseudovirus neutralization was 0.066 µg/mL.

**Q.** What about the IC80 [42] of the same substance?
**A.** Its IC80 is 2.5 µg/mL.

**Q.** What about the IC50, pseudovirus neutralization [43] of the same substance?
**A.** The IC50, pseudovirus neutralization was 0.0153 µg/mL.

**Q.** What about the IC50, pseudovirus neutralization [44] of the same substance?
**A.** Its IC50, pseudovirus neutralization is 0.0123 µg/mL.

**Q.** And the IC50, pseudovirus neutralization [45]?
**A.** Its IC50, pseudovirus neutralization is over 50 µg/mL.

**Q.** What about the IC50, pseudovirus neutralization [46] of the same substance?
**A.** The IC50, pseudovirus neutralization was 0.146 µg/mL.

**Q.** What about the IC80, pseudovirus neutralization [47] of the same substance?
**A.** Its IC80, pseudovirus neutralization is over 50 µg/mL.

**Q.** And the IC80 [48]?
**A.** The IC80 was 0.112 µg/mL.

**Q.** And the IC80, pseudovirus neutralization [49]?
**A.** Its IC80, pseudovirus neutralization is 0.0937 µg/mL.

**Q.** What about the IC80 [50] of the same substance?
**A.** Its IC80 is 0.0287 µg/mL.

**Q.** And the IC50, pseudovirus neutralization [51]?
**A.** The IC50, pseudovirus neutralization was over 50 µg/mL.

**Q.** What about the IC50, pseudovirus neutralization [52] of the same substance?
**A.** Its IC50, pseudovirus neutralization is 0.446 µg/mL.

**Q.** What about the IC50, pseudovirus neutralization [53] of the same substance?
**A.** The IC50, pseudovirus neutralization was over 50 µg/mL.
